Bridges are numbered along the chain shown (N, C = ends). Where no end group is shown, it is not given here. [ ]: non-standard residue; d: D form. The star is where a group is joined. D‑NA = N-terminal D-nipecotic acid moiety terminating in acrylamide (cysteine-reactive warhead); Biotin = O=C1N[C@H]2[C@H](CS[C@H]2CCCCC(=O)*)N1; R8 = C=CCCCCCC[C@@](C)(N)C(=O)O; S5 = C=CCCC[C@](C)(N)C(=O)O
T1: His-BFL-1ΔC (human, UniProt Q16548 1-151)
T1 construct: also called WT His-BFL-1ΔC; wild-type BFL-1 construct; not shown: N-terminal hexahistidine tag (pET17b)
T1 sequence: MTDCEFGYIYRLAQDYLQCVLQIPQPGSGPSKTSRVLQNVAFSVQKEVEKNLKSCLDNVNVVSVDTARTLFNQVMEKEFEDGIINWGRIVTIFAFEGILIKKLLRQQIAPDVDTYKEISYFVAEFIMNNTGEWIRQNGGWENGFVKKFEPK

T2: His-BFL-1ΔC C4S/C19S (human, UniProt Q16548 1-151)
T2 construct: also called BFL-1 C4S/C19S; not shown: N-terminal hexahistidine tag (pET17b)
T2 chain: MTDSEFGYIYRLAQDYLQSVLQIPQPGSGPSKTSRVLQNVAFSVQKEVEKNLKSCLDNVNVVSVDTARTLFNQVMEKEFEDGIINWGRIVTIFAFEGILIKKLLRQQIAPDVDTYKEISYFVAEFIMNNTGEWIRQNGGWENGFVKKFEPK

T3: recombinant full-length BFL-1 (human, UniProt Q16548 1-175)
T3 construct: not shown: N-terminal hexahistidine tag
T3 sequence: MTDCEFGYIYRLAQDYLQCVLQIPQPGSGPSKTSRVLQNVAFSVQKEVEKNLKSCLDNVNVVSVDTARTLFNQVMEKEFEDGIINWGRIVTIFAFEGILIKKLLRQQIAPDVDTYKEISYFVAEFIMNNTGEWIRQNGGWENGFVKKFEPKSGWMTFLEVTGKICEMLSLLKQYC

T4: full length HA-BFL1 (human, UniProt Q16548 1-175)
T4 construct: also called HA-tagged full-length BFL-1; expressed full-length BFL-1; not shown: HA tag
T4 sequence: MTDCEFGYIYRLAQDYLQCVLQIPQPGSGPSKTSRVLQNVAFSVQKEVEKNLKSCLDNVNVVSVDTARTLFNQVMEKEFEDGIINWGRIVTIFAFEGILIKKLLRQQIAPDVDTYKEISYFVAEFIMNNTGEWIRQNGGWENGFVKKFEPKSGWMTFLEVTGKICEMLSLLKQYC


Assays:
[1] = molecular target: T1, His-BFL-1ΔC; test: streptavidin pull-down of biotinylated SAHB from an equimolar mixture of recombinant GST-MCL-1ΔNΔC, BCL-XLΔC and His-BFL-1ΔC; silver stain
Description: The biotinylated D-NA-NOXA-15 F32A SAHB or corresponding acetylated construct was incubated in an equimolar mixture with recombinant BFL-1, BCL-XL, and MCL-1, and then subjected to streptavidin pull-down. […] Additionally, the preferential interactions of these peptides were assessed with endogenous protein in lysates from the A375P melanoma cell line.
WT His-BFL-1ΔC, BCL-XLΔC (tagless), and GST-MCL-1ΔNΔC (1 μM each) were combined and incubated with 3 mM DTT in PBS for thirty minutes at room temperature. Mixtures were treated with vehicle or the indicated C-terminally biotinylated NOXA SAHB (1 μM) for four hours and were then added to 30 μL PBS-washed high-capacity streptavidin (SA) agarose beads (Thermo Fisher Pierce) and incubated with rotation at room temperature for two hours. The beads were then washed three times with NP-40 lysis buffer (1% NP-40, 50 mM Tris pH 8, 100 mM NaCl, 2.5 mM MgCl2) and three times with PBS. To elute bound protein, beads were boiled for ten minutes with 10% SDS containing 10 mg/mL biotin. After elution, samples were boiled with 3×LDS and 2M DTT for twenty minutes. Gel electrophoresis using a 12% Bis-Tris gel was conducted on inputs (2%) and eluates ([…]) and gels were developed using the Pierce silver staining kit (Thermo Fisher).

[2] = molecular target: T2, His-BFL-1ΔC C4S/C19S; test: competitive fluorescence polarization against FITC-BID BH3
Description: (§1) The warhead-bearing D-NA-NOXA-15 R31E SAHB was only able to compete with FITC-BID BH3 for binding to BFL-1ΔC C4S/C19S (FIG. 20), and this activity was dependent on the presence of Cys55 in the BH3-binding pocket, as this effect was not observed with BFL-1ΔC C4S/C19S/C55S (FIG. 21).
(§2) Fluorescence polarization (FP) assays were performed as previously described (Pitter et al., 2008 (supra)). Briefly, direct binding curves were first generated by FITC-BID BH3 (25 nM) with serial dilutions of anti-apoptotic protein, and FP was measured at 5 min on a SpectraMax M5 microplate reader (Molecular Devices). For competition assays, a serial dilution of acetylated or warhead-bearing NOXA SAHB was added to the indicated recombinant protein at ~EC75 concentration, as determined by the direct binding assay. FITC-BID BH3 (25 nM) was then added and fluorescence polarization was measured at equilibrium. IC50 values were calculated by nonlinear regression analysis of competitive binding curves using PRISM software (GraphPad).

[3] = molecular target: T5, MCL-1ΔNΔC (human, UniProt Q07820 172-329); test: as above
T5 construct: As printed for the fluorescence polarization assay
T5 sequence (Q07820 172-329, stated change not applied): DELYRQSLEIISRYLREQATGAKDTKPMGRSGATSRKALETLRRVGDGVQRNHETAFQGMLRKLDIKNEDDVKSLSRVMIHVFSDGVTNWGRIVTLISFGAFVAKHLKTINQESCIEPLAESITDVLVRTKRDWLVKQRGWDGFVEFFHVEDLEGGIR
Description: as §1, §2

[4] = molecular target: T1, His-BFL-1ΔC; test: in vitro covalent conjugation; reducing and denaturing gel electrophoresis
[5] = molecular target: T3, recombinant full-length BFL-1; test: as above
[6] = molecular target: T4, full length HA-BFL1; test: 293T cells treated with 20 µM NOXA SAHB for 12 hours; anti-HA western of lysates
Text: Of note, native BFL-1 runs at a higher molecular weight than recombinant or expressed BFL-1.

Row | binding result [1] | binding result [2] | binding result [3] | binding result [4] | binding result [5] | binding result [6] | Binder
1 | no binding (tested: 1 µM) | – | – | – | – | – | Ac-AT[R8]LREFGD[S5]LNFRQK(Biotin) (staple 3-10, also called acetylated counterpart of D-NA-NOXA-15 R31E) [biotinylated Ac-NOXA-15 R31E SAHB]
2 | – | binds | binds | binds | binds | binds | {D‑NA}-AT[R8]LREFGD[S5]LNFRQ (staple 3-10, also called D-NA-NOXA SAHB-15 R31E; cysteine-reactive NOXA-15 R31E SAHB) [D-NA-NOXA-15 R31E]
3 | – | – | – | binds | binds | binds | {D‑NA}-AT[R8]LRRAGD[S5]LNFRQ (staple 3-10, also called D-NA-NOXA SAHB-15 F32A; cysteine-reactive NOXA-15 F32A SAHB) [D-NA-NOXA-15 F32A]
4 | – | – | binds | – | – | – | Ac-AT[R8]LREFGD[S5]LNFRQ (staple 3-10, also called acetylated NOXA-15 R31E SAHB; acetylated counterpart of D-NA-NOXA-15 R31E) [Ac-NOXA-15 R31E]

From patent US20260226104A1 (Dana-Farber, published 2026)
